Data taken from the RNAGym collection of RNA variant scans (doi:10.7554/elife.90254).

B1: LINE1-full (parent)
chain: UACGUAGGUGGUUUUCCCCUGAUAGUGCUAAGGGGGCCUGGAAGUUUGGACUGGGCAGAGCUCAACACAGCGUGGCAAAGUGGCUGUGGCUAGACUGCCUCUCUGGAUUCCUCGUCACUCAGCAGGGCAUCUCUGAGAGAAAUGCC

Variants of: B1
Experiment: self-cleavage, relative activity (ratio to wild type); higher = more cleavage; in vitro, sequencing; the parent is a self-cleaving ribozyme

Point of comparison: A57G C113U, self-cleavage 0.29. Against it:
- A57C U104A — lower, 0.18
- A57C U119A — lower, 0.06
- A57C U130A — lower, 0.03
- A57C U132A — lower, 0
- A57C U132G — lower, 0
- A57G — higher, 0.88
- A57G A65G — lower, 0.1
- A57G A65U — lower, 0.15
- A57G A67U — lower, 0.06
- A57G A69U — lower, 0.07
- A57G A78G — higher, 0.65
- A57G A94U — lower, 0.19
- A57G A107U — higher, 0.92
- A57G A117G — higher, 1.41
- A57G A121G — higher, 1.07
- A57G A124G — higher, 0.41
- A57G A124U — higher, 0.76
- A57G A129G — higher, 0.74
- A57G A136U — higher, 0.95
- A57G A138G — higher, 1.12
- A57G A140U — higher, 1.05
- A57G A141G — higher, 0.72
- A57G C63U — lower, 0.17
- A57G C66U — lower, 0.05
- A57G C84U — lower, 0.11
- A57G C98U — lower, 0.19
- A57G C99A — lower, 0.2
- A57G C99U — lower, 0.13
- A57G C101U — higher, 1.13
- A57G C120U — higher, 1.54
- A57G C128A — lower, 0.12
- A57G C128U — higher, 0.79
- A57G G58A — lower, 0.03
- A57G G60C — lower, 0.11
- A57G G75A — higher, 0.73
- A57G G75C — higher, 0.35
- A57G G83C — lower, 0.17
- A57G G105A — higher, 0.48
- A57G G106A — higher, 1.04
- A57G G126A — higher, 1.19
- A57G G139A — higher, 0.75
- A57G G139U — higher, 0.48
- A57G U62A — lower, 0.05
- A57G U62C — lower, 0.08
- A57G U73A — higher, 0.37
- A57G U81A — higher, 1.16
- A57G U81C — higher, 0.89
- A57G U85A — lower, 0.13
- A57G U85C — lower, 0.16
- A57G U85G — lower, 0.23
- A57G U87C — lower, 0.11
- A57G U87G — lower, 0.14
- A57G U91A — higher, 0.34
- A57G U91C — higher, 0.4
- A57G U96G — lower, 0
- A57G U100A — higher, 0.3
- A57G U102A — higher, 0.82
- A57G U102G — lower, 0.19
- A57G U104C — higher, 1.11
- A57G U108A — higher, 0.8
- A57G U109C — higher, 0.49
- A57G U112C — higher, 0.68
- A57G U115A — higher, 0.81
- A57G U115C — higher, 1.3
- A57G U119C — higher, 1.4
- A57G U130A — higher, 1.27
- A57G U130C — higher, 1.3
- A57G U134A — higher, 0.62
- A57G U134C — higher, 0.93
- A57G U134G — higher, 0.78
- A57U — lower, 0.1
- A57U A59G — lower, 0.05
- A57U A64C — lower, 0.06
- A57U A65G — lower, 0.07
- A57U A67U — lower, 0.02
- A57U A69G — lower, 0.08
- A57U A69U — lower, 0
- A57U A77U — lower, 0.05
- A57U A78U — lower, 0.03
- A57U A94C — lower, 0.1
- A57U A107G — lower, 0.14
- A57U A107U — lower, 0.02
